What was measured:
human FXIa factor [1] = target: T1, human FXIa factor (human, UniProt P03951 19-625); assay: cell-based or functional assay
human FXIa factor [2] = target: T1, human FXIa factor; assay: cell-based or functional assay; remark: listed apart in the source
human FXIa factor [3] = target: T1, human FXIa factor; assay: cell-based or functional assay; remark: listed apart in the source
human FXIa factor [4] = target: T1, human FXIa factor; assay: cell-based or functional assay; remark: listed apart in the source
human FXIa factor [5] = target: T1, human FXIa factor; assay: cell-based or functional assay; remark: listed apart in the source
human FXIa factor [6] = target: T1, human FXIa factor; assay: Biacore 8K (SPR), human FXIa in 2-fold dilution series

B1: chimeric antibody 19C9C10 (antibody, V domains shown)
VH: EVKLEESGAELVKTGASVKLSCTASGFNIKDTYMHWVKQRPEQGLEWIGRIDPANDNTKYDPKFQGRATVTADTSSNTAYLQLISLTSEDTAVYYCAGDYDGYAMDYWGQGTSVTVSS
VL: DIVMTQTTSSLSVSLGGKVTITCKASQDINKYVAWFQHKPGKGPRLLMHYTSTLEPGIPSRFSGSGSGRDYSFTISNLEPEDIATYYCLQYDNLLTFGGGTKLEIK
IC50(nM) from S2366 assay (Second Batch) (human FXIa factor [1]): 38.5 nM
FXIa Kit Activity Assay (nM), IC50 (Second Batch) (human FXIa factor [2]): 1.31 nM

B2: chimeric antibody 14F3 (antibody, V domains shown)
VH: QVQLQQSGAELVRPGTSVTVSCKASGYAFSNYLIEWVNQRPGQGLEWIGVINPGSGYTNYNENFKDKATLTADTSSSTAYMQLSSLTSDDSAVYFCARTYGKYGGAMDFWGQGTSVTVSS
VL: DIVMTQTPKFLLVSAGDRVTITCKASQSVSNDVAWYQQKPGQSPKLLIYYISNRYTGVPDRFTGSGYGTDFTFTINTVQAEDLAVYFCQQDYSSPPTFGGGTKLEIK
IC50(nM) from S2366 assay (First Batch) (human FXIa factor [1]): 78.7 nM
FXIa Kit Activity Assay (nM), IC50 (First Batch) (human FXIa factor [2]): 7.77 nM

B3: 14F3-sy (antibody, V domains shown)
VH: QVQLQQSGAELVRPGTSVTVSCKASGYAFSNYLIEWVNQRPGQGLEWIGVINPGSGYTNYNENFKDKATLTADTSSSTAYMQLSSLTSDDSAVYFCARTYGKYGGAMDFWGQGTSVTVSS
VL: DIVMTQTPKFLLVSAGDRVTITCKASQSVSNDVAWYQQKPGQSPKLLIYYISNRYTGVPDRFTGSGYGTDFTFTINTVQAEDLAVYFCQQDYSSPPTFGGGTKLEIK
OD405nm, S2366 activity assay, antibody at 20µg/mL (human FXIa factor [3]): 0.211 OD405nm

B4: humanized antibody 14F3-Z1 (antibody, human IgG1, kappa, V domains shown)
VH: QVQLVQSGAEVKKPGASVKVSCKASGYAFSNYLIEWVGQAPGQGLEWMGVINPGSGYTNYNENFKDRVTMTAHTSISTAYMELSRLRSDDTAVYFCARTYGKYGGAMDFWGQGTLVTVSS
VL: DIQMTQSPSSLSASVGDRVTITCKASQSVSNDVAWYQQKPGKAPKLLIYYISNRYTGVPSRFSGSGSGTDFTFTISSLQPEDIATYFCQQDYSSPPTFGQGTKLEIKR
IC50 (nM) from S2366 Assay (human FXIa factor [4]): 54.1 nM
FXIa kit Activity Assay (nM), IC50 (human FXIa factor [5]): 8.53 nM

B5: humanized antibody 14F3-1 (antibody, human IgG1, kappa, V domains shown)
VH: QVQLVQSGAEVKKPGASVKVSCKASGYTFTNYLIEWVRQAPGQGLEWMGVINPGSGYTNYNENFKDRVTMTRDTSISTAYMELSRLRSDDTAVYYCARTYGKYGGAMDFWGQGTTVTVSS
VL: DIVMTQSPDSLAVSLGERATINCKASQSVSNDVAWYQQKPGQPPKLLIYYISNRYTGVPDRFSGSGSGTDFTLTISSLQAEDVAVYYCQQDYSSPPTFGGGTKLEIKR
notes: To be verified
IC50 (nM) from S2366 Assay (human FXIa factor [4]): 45.4 nM
Kd (human FXIa factor [6]): 0.000809 nM
koff (human FXIa factor [6]): 1.05e-05 s⁻¹
kon (human FXIa factor [6]): 1.3e+07 M⁻¹ s⁻¹
FXIa kit Activity Assay (nM), IC50 (human FXIa factor [5]): 7.5 nM

B6: humanized antibody 14F3-Z4 (antibody, human IgG1, kappa, V domains shown)
VH: QVQLVQSGAEVKKPGSSVKVSCKASGYAFSNYLIEWVRQAPGQGLEWMGVINPGSGYTNYNENFKDRVTITADESTSTAYMELSSLRSEDTAVYFCARTYGKYGGAMDFWGQGTTVTVSS
VL: DIQMTQSPSFLSASVGDRVTITCKASQSVSNDVAWYQQKPGKAPKLLIYYISNRYTGVPSRFSGSGSGTDFTLTISSLQPEDFATYFCQQDYSSPPTFGQGTKLEIKR
IC50 (nM) from S2366 Assay (human FXIa factor [4]): 55.8 nM
FXIa kit Activity Assay (nM), IC50 (human FXIa factor [5]): 13.6 nM

B7: humanized antibody 14F3-4 (antibody, human IgG1, kappa, V domains shown)
VH: QVQLVQSGAEVKKPGASVKVSCKASGYTFTNYLIEWVRQAPGQGLEWIGVINPGSGYTNYNENFKDRATLTADTSISTAYMELSRLRSDDTAVYFCARTYGKYGGAMDFWGQGTTVTVSS
VL: DIVMTQSPDSLAVSLGERATINCKASQSVSNDVAWYQQKPGQPPKLLIYYISNRYTGVPDRFSGSGSGTDFTLTISSLQAEDVAVYFCQQDYSSPPTFGGGTKLEIKR
IC50 (nM) from S2366 Assay (human FXIa factor [4]): 64.7 nM
FXIa kit Activity Assay (nM), IC50 (human FXIa factor [5]): 15.7 nM

B8: humanized antibody 14F3-3 (antibody, human IgG1, kappa, V domains shown)
VH: QVQLVQSGAEVKKPGASVKVSCKASGYTFTNYLIEWVRQAPGQGLEWIGVINPGSGYTNYNENFKDRATLTADTSISTAYMELSRLRSDDTAVYFCARTYGKYGGAMDFWGQGTTVTVSS
VL: DIVMTQSPDSLAVSLGERATINCKASQSVSNDVAWYQQKPGQPPKLLIYYISNRYTGVPDRFSGSGSGTDFTLTISSLQAEDVAVYYCQQDYSSPPTFGGGTKLEIKR
IC50 (nM) from S2366 Assay (human FXIa factor [4]): 52.7 nM
FXIa kit Activity Assay (nM), IC50 (human FXIa factor [5]): 10.7 nM

B9: humanized antibody 14F3-2 (antibody, human IgG1, kappa, V domains shown)
VH: QVQLVQSGAEVKKPGASVKVSCKASGYTFTNYLIEWVRQAPGQGLEWMGVINPGSGYTNYNENFKDRVTMTRDTSISTAYMELSRLRSDDTAVYYCARTYGKYGGAMDFWGQGTTVTVSS
VL: DIVMTQSPDSLAVSLGERATINCKASQSVSNDVAWYQQKPGQPPKLLIYYISNRYTGVPDRFSGSGSGTDFTLTISSLQAEDVAVYFCQQDYSSPPTFGGGTKLEIKR
IC50 (nM) from S2366 Assay (human FXIa factor [4]): 43 nM
FXIa kit Activity Assay (nM), IC50 (human FXIa factor [5]): 9.69 nM

B10: humanized antibody 14F3-Z2 (antibody, human IgG1, kappa, V domains shown)
VH: QVQLVQSGAEVKKPGASVKVSCKASGYAFSNYLIEWVGQAPGQGLEWMGVINPGSGYTNYNENFKDRVTMTRHTSISTAYMELSRLRSDDTAVYFCARTYGKYGGAMDFWGQGTLVTVSS
VL: DIQMTQSPSSLSASVGDRVTITCKASQSVSNDVAWYQQKPGKAPKLLIYYISNRYTGVPSRFSGSGSGTDFTFTISSLQPEDIATYYCQQDYSSPPTFGQGTKLEIKR
IC50 (nM) from S2366 Assay (human FXIa factor [4]): 57.3 nM
FXIa kit Activity Assay (nM), IC50 (human FXIa factor [5]): 8.79 nM

B11: humanized antibody 14F3-Z3 (antibody, human IgG1, kappa, V domains shown)
VH: QVQLVQSGAEVKKPGSSVKVSCKASGYAFSNYLIEWVRQAPGQGLEWMGVINPGSGYTNYNENFKDRVTITADESTSTAYMELSSLRSEDTAVYYCARTYGKYGGAMDFWGQGTTVTVSS
VL: DIQMTQSPSFLSASVGDRVTITCKASQSVSNDVAWYQQKPGKAPKLLIYYISNRYTGVPSRFSGSGSGTDFTLTISSLQPEDFATYYCQQDYSSPPTFGQGTKLEIKR
IC50 (nM) from S2366 Assay (human FXIa factor [4]): 56.3 nM
FXIa kit Activity Assay (nM), IC50 (human FXIa factor [5]): 13.5 nM

B12: chimeric antibody 11E8 (antibody, V domains shown)
VH: EVKLQESGPELVKTGASVKISCKASGYSFTGYFMNWVKQSHGKSLEWIGFINCYNGATSYNQKFKGKATFTVDASSSSAYMQFNSLTSEDSAVYYCARTISTGDSFDYWGQGSTLTVSS
VL: DIVMTQSTSYLSVSLGGRVTITCKASDHINNWLAWYQQKPGDAPSLLISGASRLETGVPSRFSGSGSGKDYTLSITSLQTEDVATYYCQQYWTTPFTFGSGTKLEIK
IC50(nM) from S2366 assay (Third Batch) (human FXIa factor [1]): 93.1 nM
FXIa Kit Activity Assay (nM), IC50 (Third Batch) (human FXIa factor [2]): 7.8 nM

B13: chimeric antibody 17E10 (antibody, V domains shown)
VH: EVQLEESGPGLVKPSQSLSLTCSVTGYSITSGFYWNWIRQFPGNKLEWMGYISFDGRHNYNPSLKNRFSITRDTSKNQFFLKLTSVTAEDTATYYCARDLITTVYYYPMDYWGQGTSVTVSS
VL: DIVMTQSHKFMSTSVGDRVSITCKASQDVGTAVDWYQQKTGQSPKLLIYWASTRHTGVPDRFTGSGSGTDFTLTISNVQSEDLADYFCQQYSNYPLTFGAGTKLELK
FXIa Kit Activity Assay (nM), IC50 (First Batch) (human FXIa factor [2]): 11.6 nM

B14: chimeric antibody 3B3 (antibody, V domains shown)
VH: EVQLEESGADLVRPGTSVKVSCKASGYAFTNYLIDWLKQRPGQGLEWIGVINPGSGITNYNEKFKGKATLTTDTSSSTAYMQLTNLTSDDSAVYFCARGDGTYYEDFLDYWGQGTSVTVSS
VL: DIVLTQTTSSIYTSLGERVTITCKASQDINSYLSWFQQRPGRSPKTLIYRANRLMDGVPSRFSGSGSGRDFSLTISSLDYEDMGIYYCLQYDEFPLTFGAGTKLELK
IC50(nM) from S2366 assay (Fourth Batch) (human FXIa factor [1]): 42.4 nM

B15: chimeric antibody 29E10C4 (antibody, V domains shown)
VH: QVKLEESGAELVRPGTSVKVSCKASGYAFTDYFIEWIKQRPGQGLEWIGVINPGNDVTNYNEKFKGKATLTVDKSSTTAYMQLSSLTSDDSAVYFCTRSAGNYENSMDFWGQGTSVTVSS
VL: DIVLTQSPKFLLVSAGDRVTITCKASQSVSNDVGWYQQKPGQSPKLLIYYTSNRYTGVPDRFTGSGYGTDFTFTISSVQAEDLAVYFCQQDYHFPLTFGAGTKLELK
IC50(nM) from S2366 assay (Second Batch) (human FXIa factor [1]): 34.9 nM
FXIa Kit Activity Assay (nM), IC50 (Second Batch) (human FXIa factor [2]): 0.219 nM

B16: chimeric antibody 17E3C10 (antibody, V domains shown)
VH: QVKLQESGPELRKPGETVYISCKASGYTFTNYGVNWVKQAPGKGLKWMGWINTYTGEPIYADDFKGRFAFSLETSANTAYLQISNLTNEDTATYFCARLYLYGNTYDYYAMDYWGQGTSVTVSS
VL: DIVLTQTPSSMYASLGERVTITCKASQDISTYLSWFQQKPGKSPKTLIYRANRLIDGVPSRFSGSGSGQDFSLTISSLEYEDMGVYYCLQYDDLNTFGGGTKLEIK
IC50(nM) from S2366 assay (Second Batch) (human FXIa factor [1]): 44.4 nM
FXIa Kit Activity Assay (nM), IC50 (Second Batch) (human FXIa factor [2]): 0.781 nM

B17: 24B6-sy (antibody, V domains shown)
VH: EVQLQESGGDLVKPGGSLKLSCAASGFTFSSYGMSWVRQTPDKRLEWVATISSGGSFTYYPDSVKGRFTISRDNAKNTLYLQMSSLKSEDTAMYYCASLTSEGYAMEYWGQGTSVTVSS
VL: DIVLTQSPASLAVSLGQRATISCRASKSVSTSGYSHMHWYQQKLGQPPKLLIYLASNLESGVPARFSGSGSGTDFTLNIHPVEEEDAATYYCQHSRELPYTFGGGTKLEIK
OD405nm, S2366 activity assay, antibody at 20µg/mL (human FXIa factor [3]): 0.268 OD405nm

B18: chimeric antibody 24B6 (antibody, V domains shown)
VH: EVQLQESGGDLVKPGGSLKLSCAASGFTFSSYGMSWVRQTPDKRLEWVATISSGGSFTYYPDSVKGRFTISRDNAKNTLYLQMSSLKSEDTAMYYCASLTSEGYAMEYWGQGTSVTVSS
VL: DIVLTQSPASLAVSLGQRATISCRASKSVSTSGYSHMHWYQQKLGQPPKLLIYLASNLESGVPARFSGSGSGTDFTLNIHPVEEEDAATYYCQHSRELPYTFGGGTKLEIK
IC50(nM) from S2366 assay (First Batch) (human FXIa factor [1]): 122 nM
FXIa Kit Activity Assay (nM), IC50 (First Batch) (human FXIa factor [2]): 6.7 nM

B19: Osocimab (antibody, V domains shown)
VH: EVQLLESGGGLVQPGGSLRLSCAASGFTFSQYGMDWVRQAPGKGLEWVSGIGPSGGSTVYADSVKGRFTISRDNSKNTLYLQMNSLRAEDTAVYYCTRGGPYYYYGMDVWGQGTTVTVSS
VL: DIQMTQSPSSLSASVGDRVTITCQASQDISNYLNWYQQKPGKAPKLLIYDASNLETGVPSRFSGSGSGTDFTFTISSLQPEDIATYYCQQADSFPVTFGGGTKVEIK
IC50 (nM) from S2366 Assay (human FXIa factor [4]): 226 nM
Kd (human FXIa factor [6]): 6.37 nM
koff (human FXIa factor [6]): 0.00411 s⁻¹
kon (human FXIa factor [6]): 645000 M⁻¹ s⁻¹
FXIa kit Activity Assay (nM), IC50 (human FXIa factor [5]): 32.5 nM

From patent EP4644426A1 (Gan & Lee Pharmaceuticals Co., Ltd., dated 2025)
